Experimental data published in patent US20080261906.

Assays:
[1] = molecular target: Rab1 GTPase (GTP-loaded, purified)
[2] = molecular target: other Rabs and Arfs of the panel (27 mammalian Rabs and several different ARFs were tested)

Row | Protein | catalytic efficiency (kcat/Km) of GAP-accelerated GTP hydrolysis [1] | catalytic efficiency relative to the intrinsic rate constant for GTP hydrolysis [2] | kinetics of Rab1 GTP hydrolysis (GAP assay) [1]
1 | TBC1D20 with a 6xHIS N-terminal tag (bacterially expressed, pDEST-17) (protein) MALRSAQGDGPTSGHWDGGAEKADFNAKRKKKVAEIHQALNSDPTDVAALRRMAISEGGLLTDEIRRKVWPKLLNVNANDPPPISGKNLRQMSKDYQQVLLDVRRSLRRFPPGMPEEQREGLQEELIDIILLILERNPQLHYYQGYHDIVVTFLLVVGERLATSLVEKLSTHHLRDFMDPTMDNTKHILNYLMPIIDQVNPELHDFMQSAEVGTIFALSWLITWFGHVLSDFRHVVRLYDFFLACHPLMPIYFAAVIVLYREQEVLDCDCDMASVHHLLSQIPQDLPYETLISRAGDLFVQFPPSELAREAAAQQQAERTAASTFKDFELASAQQRPDMVLRQRFRGLLRPEDRTKDVLTKPRTNRFVKLAVMGLTVALGAAALAVVKSALEWAPKFQLQLFP | Activation of Rab1GTP hydrolysis by TBC1D20 has an apparent catalytic efficiency (kcat/Km) of 360 M^-1s^-1 | Note that only Rab1 displays significant activation by TBC1D20 | 
2 | mutant TBC1D20 (R66A, R105A), 6xHIS N-terminal tag, bacterially expressed (protein) MALRSAQGDGPTSGHWDGGAEKADFNAKRKKKVAEIHQALNSDPTDVAALRRMAISEGGLLTDEIARKVWPKLLNVNANDPPPISGKNLRQMSKDYQQVLLDVRASLRRFPPGMPEEQREGLQEELIDIILLILERNPQLHYYQGYHDIVVTFLLVVGERLATSLVEKLSTHHLRDFMDPTMDNTKHILNYLMPIIDQVNPELHDFMQSAEVGTIFALSWLITWFGHVLSDFRHVVRLYDFFLACHPLMPIYFAAVIVLYREQEVLDCDCDMASVHHLLSQIPQDLPYETLISRAGDLFVQFPPSELAREAAAQQQAERTAASTFKDFELASAQQRPDMVLRQRFRGLLRPEDRTKDVLTKPRTNRFVKLAVMGLTVALGAAALAVVKSALEWAPKFQLQLFP |  |  | the GTPase activating activity of TBC1D20 on Rab1 was abolished when these conserved arginine residues were mutated to alanine
